In patent US20110020842:

Test system: T1, peptide TRPM7p (Ac-RKKYRIVWKSIFRRFL)
T1 sequence: RKKYRIVWKSIFRRFL

TRPM7 kinase
fold increase in activity as compared to peptide MH-U: 30 to 35 fold increase in activity
phosphorylation at a single substrate concentration (100 µM): both peptides are efficiently phosphorylated by their respective kinases
